Experimental data reported in the supplement of paper PMC5998384.

Experiments:
[1] = system: HeLa Kyoto; experiment: melting temperature (median over replicates), in situ; higher = more thermally stable
[2] = system: HeLa Kyoto; experiment: solubility change mitosis vs G1/S (difference of NP-40 vs SDS log2 ratios) (log2 ratio difference); higher = more soluble in mitosis
[3] = system: HeLa Kyoto; experiment: solubility in G1/S (NP-40 vs SDS abundance) (log2 ratio); higher = more soluble; settings: cell cycle stage: G1/S
[4] = system: HeLa Kyoto; experiment: thermal stability score vs G1/S (z-score of summed log2 fold changes over temperatures); higher = more thermally stable than in G1/S
[5] = cell cycle stage: early G1 (4.5 h after nocodazole release)
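Wherever melting temperature (median over replicates), in situ is given: HeLa Kyoto cells synchronized by double thymidine or nocodazole block, proteins quantified by TMT10plex mass spectrometry, three independent biological replicates.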
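Wherever solubility change mitosis vs G1/S (difference of NP-40 vs SDS log2 ratios) is given: synchronized HeLa Kyoto cells (double thymidine block for G1/S, nocodazole release for mitosis), protein amounts in NP-40 versus SDS lysates quantified by mass spectrometry, three biological replicates.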
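Wherever solubility in G1/S (NP-40 vs SDS abundance) is given: HeLa Kyoto cells arrested at G1/S by double thymidine block, proteins quantified by TMT10plex mass spectrometry in mild NP-40 versus SDS extracts, three biological replicates.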
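Wherever thermal stability score vs G1/S (z-score of summed log2 fold changes over temperatures) is given: synchronized HeLa Kyoto cells, proteins quantified by TMT10plex mass spectrometry, three biological replicates, mitosis taken 0.5 h after nocodazole release, G1/S directly after double thymidine block.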

Sequence of CYCS (chain, as listed by the source): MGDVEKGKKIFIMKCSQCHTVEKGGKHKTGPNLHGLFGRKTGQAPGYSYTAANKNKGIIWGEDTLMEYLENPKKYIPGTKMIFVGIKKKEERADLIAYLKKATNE
Sequence of OXSM (chain, as listed by the source): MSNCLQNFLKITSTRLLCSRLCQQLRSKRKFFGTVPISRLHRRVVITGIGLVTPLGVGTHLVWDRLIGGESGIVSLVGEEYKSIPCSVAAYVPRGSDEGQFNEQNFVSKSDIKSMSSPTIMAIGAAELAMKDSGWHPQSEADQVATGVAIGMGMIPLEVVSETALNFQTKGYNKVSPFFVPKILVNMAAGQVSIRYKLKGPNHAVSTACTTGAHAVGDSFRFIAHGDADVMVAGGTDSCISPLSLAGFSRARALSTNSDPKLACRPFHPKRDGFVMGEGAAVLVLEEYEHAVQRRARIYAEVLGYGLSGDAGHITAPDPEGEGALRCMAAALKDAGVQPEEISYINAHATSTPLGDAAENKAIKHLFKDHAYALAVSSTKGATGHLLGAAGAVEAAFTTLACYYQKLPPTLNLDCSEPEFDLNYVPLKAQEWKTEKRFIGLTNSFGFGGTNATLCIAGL

Row | Substance | melting temperature ([1]; cell cycle stage: G1/S) | melting temperature ([1]; cell cycle stage: mitosis) | solubility change mitosis (log2) [2] | solubility in G1/S (log2) [3] | thermal stability score [4, 5] | thermal stability score ([4]; cell cycle stage: mitosis)
1 | MLPVYQEVKPNPLQDANLCSRVFFWWLNPLFKIGHKRRLEEDDMYSVLPEDRSQHLGEELQGFWDKEVLRAENDAQKPSLTRAIIKCYWKSYLVLGIFTLIEESAKVIQPIFLGKIINYFENYDPMDSVALNTAYAYATVLTFCTLILAILHHLYFYHVQCAGMRLRVAMCHMIYRKALRLSNMAMGKTTTGQIVNLLSNDVNKFDQVTVFLHFLWAGPLQAIAVTALLWMEIGISCLAGMAVLIILLPLQSCFGKLFSSLRSKTATFTDARIRTMNEVITGIRIIKMYAWEKSFSNLITNLRKKEISKILRSSCLRGMNLASFFSASKIIVFVTFTTYVLLGSVITASRVFVAVTLYGAVRLTVTLFFPSAIERVSEAIVSIRRIQTFLLLDEISQRNRQLPSDGKKMVHVQDFTAFWDKASETPTLQGLSFTVRPGELLAVVGPVGAGKSSLLSAVLGELAPSHGLVSVHGRIAYVSQQPWVFSGTLRSNILFGKKYEKERYEKVIKACALKKDLQLLEDGDLTVIGDRGTTLSGGQKARVNLARAVYQDADIYLLDDPLSAVDAEVSRHLFELCICQILHEKITILVTHQLQYLKAASQILILKDGKMVQKGTYTEFLKSGIDFGSLLKKDNEESEQPPVPGTPTLRNRTFSESSVWSQQSSRPSLKDGALESQDTENVPVTLSEENRSEGKVGFQAYKNYFRAGAHWIVFIFLILLNTAAQVAYVLQDWWLSYWANKQSMLNVTVNGGGNVTEKLDLNWYLGIYSGLTVATVLFGIARSLLVFYVLVNSSQTLHNKMFESILKAPVLFFDRNPIGRILNRFSKDIGHLDDLLPLTFLDFIQTLLQVVGVVSVAVAVIPWIAIPLVPLGIIFIFLRRYFLETSRDVKRLESTTRSPVFSHLSSSLQGLWTIRAYKAEERCQELFDAHQDLHSEAWFLFLTTSRWFAVRLDAICAMFVIIVAFGSLILAKTLDAGQVGLALSYALTLMGMFQWCVRQSAEVENMMISVERVIEYTDLEKEAPWEYQKRPPPAWPHEGVIIFDNVNFMYSPGGPLVLKHLTALIKSQEKVGIVGRTGAGKSSLISALFRLSEPEGKIWIDKILTTEIGLHDLRKKMSIIPQEPVLFTGTMRKNLDPFNEHTDEELWNALQEVQLKETIEDLPGKMDTELAESGSNFSVGQRQLVCLARAILRKNQILIIDEATANVDPRTDELIQKKIREKFAHCTVLTIAHRLNTIIDSDKIMVLDSGRLKEYDEPYVLLQNKESLFYKMVQQLGKAEAAALTETAKQVYFKRNYPHIGHTDHMVTNTSNGQPSTLTIFETAL [ABCC4] | 57.5 °C | 55.8 °C | -0.177 | -0.0872 | -1.17 | -1.43
2 | MASVGECPAPVPVKDKKLLEVKLGELPSWILMRDFSPSGIFGAFQRGYYRYYNKYINVKKGSISGITMVLACYVLFSYSFSYKHLKHERLRKYH [ATP5J2] | 53 °C | – | -0.104 | 0.148 | -0.273 | 1.63
3 | DNAJB6 | 52.8 °C | 49.8 °C | 0.0684 | -0.0238 | 0.898 | 1.65
4 | MVPLVAVVSGPRAQLFACLLRLGTQQVGPLQLHTGASHAARNHYEVLVLGGGSGGITMAARMKRKVGAENVAIVEPSERHFYQPIWTLVGAGAKQLSSSGRPTASVIPSGVEWIKARVTELNPDKNCIHTDDDEKISYRYLIIALGIQLDYEKIKGLPEGFAHPKIGSNYSVKTVEKTWKALQDFKEGNAIFTFPNTPVKCAGAPQKIMYLSEAYFRKTGKRSKANIIFNTSLGAIFGVKKYADALQEIIQERNLTVNYKKNLIEVRADKQEAVFENLDKPGETQVISYEMLHVTPPMSPPDVLKTSPVADAAGWVDVDKETLQHRRYPNVFGIGDCTNLPTSKTAAAVAAQSGILDRTISVIMKNQTPTKKYDGYTSCPLVTGYNRVILAEFDYKAEPLETFPFDQSKERLSMYLMKADLMPFLYWNMMLRGYWGGPAFLRKLFHLGMS [SQRDL] | 54.3 °C | 54.3 °C | -0.0579 | 0.148 | 0.51 | -4.29
5 | MDRMASSMKQVPNPLPKVLSRRGVGAGLEAAERESFERTQTVSINKAINTQEVAVKEKHARTCILGTHHEKGAQTFWSVVNRLPLSSNAVLCWKFCHVFHKLLRDGHPNVLKDSLRYRNELSDMSRMWGHLSEGYGQLCSIYLKLLRTKMEYHTKNPRFPGNLQMSDRQLDEAGESDVNNFFQLTVEMFDYLECELNLFQTVFNSLDMSRSVSVTAAGQCRLAPLIQVILDCSHLYDYTVKLLFKLHSCLPADTLQGHRDRFMEQFTKLKDLFYRSSNLQYFKRLIQIPQLPENPPNFLRASALSEHISPVVVIPAEASSPDSEPVLEKDDLMDMDASQQNLFDNKFDDIFGSSFSSDPFNFNSQNGVNKDEKDHLIERLYREISGLKAQLENMKTESQRVVLQLKGHVSELEADLAEQQHLRQQAADDCEFLRAELDELRRQREDTEKAQRSLSEIERKAQANEQRYSKLKEKYSELVQNHADLLRKNAEVTKQVSMARQAQVDLEREKKELEDSLERISDQGQRKTQEQLEVLESLKQELATSQRELQVLQGSLETSAQSEANWAAEFAELEKERDSLVSGAAHREEELSALRKELQDTQLKLASTEESMCQLAKDQRKMLLVGSRKAAEQVIQDALNQLEEPPLISCAGSADHLLSTVTSISSCIEQLEKSWSQYLACPEDISGLLHSITLLAHLTSDAIAHGATTCLRAPPEPADSLTEACKQYGRETLAYLASLEEEGSLENADSTAMRNCLSKIKAIGEELLPRGLDIKQEELGDLVDKEMAATSAAIETATARIEEMLSKSRAGDTGVKLEVNERILGCCTSLMQAIQVLIVASKDLQREIVESGRGTASPKEFYAKNSRWTEGLISASKAVGWGATVMVDAADLVVQGRGKFEELMVCSHEIAASTAQLVAASKVKADKDSPNLAQLQQASRGVNQATAGVVASTISGKSQIEETDNMDFSSMTLTQIKRQEMDSQVRVLELENELQKERQKLGELRKKHYELAGVAEGWEEGTEASPPTLQEVVTEKE [HIP1] | 49.9 °C | 50.2 °C | 0.0765 | 0.0989 | 0.173 | 1.11
6 | PPIH | 49.9 °C | 49.5 °C | 0.0864 | 0.00262 | 1.19 | 0.86
7 | TRIO | 48.9 °C | 49.5 °C | -0.0514 | -0.25 | -0.165 | 0.739
8 | MASADSRRVADGGGAGGTFQPYLDTLRQELQQTDPTLLSVVVAVLAVLLTLVFWKLIRSRRSSQRAVLLVGLCDSGKTLLFVRLLTGLYRDTQTSITDSCAVYRVNNNRGNSLTLIDLPGHESLRLQFLERFKSSARAIVFVVDSAAFQREVKDVAEFLYQVLIDSMGLKNTPSFLIACNKQDIAMAKSAKLIQQQLEKELNTLRVTRSAAPSTLDSSSTAPAQLGKKGKEFEFSQLPLKVEFLECSAKGGRGDVGSADIQDLEKWLAKIA [SRPRB] | 50.2 °C | 50 °C | -0.0359 | 0.446 | 3.56 | 5.21
9 | CYCS | 57.1 °C | 52.2 °C | 0.139 | -0.131 | -1.79 | -2.79
10 | CTSC | 56.8 °C | 59 °C | -0.0557 | 0.136 | 5.96 | 4.92
11 | OXSM | 58.8 °C | 61.2 °C | -0.0154 | -0.149 | 0.339 | -0.889
12 | DMXL1 | 51.4 °C | 50.9 °C | -0.0423 | -0.236 | 0.592 | 1.02
13 | MSRSYNDELQFLEKINKNCWRIKKGFVPNMQVEGVFYVNDALEKLMFEELRNACRGGGVGGFLPAMKQIGNVAALPGIVHRSIGLPDVHSGYGFAIGNMAAFDMNDPEAVVSPGGVGFDINCGVRLLRTNLDESDVQPVKEQLAQAMFDHIPVGVGSKGVIPMNAKDLEEALEMGVDWSLREGYAWAEDKEHCEEYGRMLQADPNKVSARAKKRGLPQLGTLGAGNHYAEIQVVDEIFNEYAAKKMGIDHKGQVCVMIHSGSRGLGHQVATDALVAMEKAMKRDKIIVNDRQLACARIASPEGQDYLKGMAAAGNYAWVNRSSMTFLTRQAFAKVFNTTPDDLDLHVIYDVSHNIAKVEQHVVDGKERTLLVHRKGSTRAFPPHHPLIAVDYQLTGQPVLIGGTMGTCSYVLTGTEQGMTETFGTTCHGAGRALSRAKSRRNLDFQDVLDKLADMGIAIRVASPKLVMEEAPESYKNVTDVVNTCHDAGISKKAIKLRPIAVIKG [RTCB] | 53 °C | 52.4 °C | 0.0881 | 0.171 | -2.97 | -3.42
14 | MSELPGDVRAFLREHPSLRLQTDARKVRCILTGHELPCRLPELQVYTRGKKYQRLVRASPAFDYAEFEPHIVPSTKNPHQLFCKLTLRHINKCPEHVLRHTQGRRYQRALCKYEECQKQGVEYVPACLVHRRRRREDQMDGDGPRPREAFWEPTSSDEGGAASDDSMTDLYPPELFTRKDLGSTEDGDGTDDFLTDKEDEKAKPPREKATDEGRRETTVYRGLVQKRGKKQLGSLKKKFKSHHRKPKSFSSCKQPG [SURF2] | 50.7 °C | 50.3 °C | 0.0916 | 0.0911 | 0.779 | 0.703
15 | MSSFSESALEKKLSELSNSQQSVQTLSLWLIHHRKHAGPIVSVWHRELRKAKSNRKLTFLYLANDVIQNSKRKGPEFTREFESVLVDAFSHVAREADEGCKKPLERLLNIWQERSVYGGEFIQQLKLSMEDSKSPPPKATEEKKSLKRTFQQIQEEEDDDYPGSYSPQDPSAGPLLTEELIKALQDLENAASGDATVRQKIASLPQEVQDVSLLEKITDKEAAERLSKTVDEACLLLAEYNGRLAAELEDRRQLARMLVEYTQNQKDVLSEKEKKLEEYKQKLARVTQVRKELKSHIQSLPDLSLLPNVTGGLAPLPSAGDLFSTD [RPRD1B] | 49.5 °C | 50 °C | 0.00357 | 0.562 | -0.302 | 0.484
16 | MAASWRLGCDPRLLRYLVGFPGRRSVGLVKGALGWSVSRGANWRWFHSTQWLRGDPIKILMPSLSPTMEEGNIVKWLKKEGEAVSAGDALCEIETDKAVVTLDASDDGILAKIVVEEGSKNIRLGSLIGLIVEEGEDWKHVEIPKDVGPPPPVSKPSEPRPSPEPQISIPVKKEHIPGTLRFRLSPAARNILEKHSLDASQGTATGPRGIFTKEDALKLVQLKQTGKITESRPTPAPTATPTAPSPLQATAGPSYPRPVIPPVSTPGQPNAVGTFTEIPASNIRRVIAKRLTESKSTVPHAYATADCDLGAVLKVRQDLVKDDIKVSVNDFIIKAAAVTLKQMPDVNVSWDGEGPKQLPFIDISVAVATDKGLLTPIIKDAAAKGIQEIADSVKALSKKARDGKLLPEEYQGGSFSISNLGMFGIDEFTAVINPPQACILAVGRFRPVLKLTEDEEGNAKLQQRQLITVTMSSDSRVVDDELATRFLKSFKANLENPIRLA [PDHX] | 53.5 °C | 52.9 °C | -0.00638 | 0.248 | -1.5 | -1.54
